For 18 sequences, protein production results are on record in a protein production outcome set (Wang et al. 2014).

This data set is described as follows: label from the status in PepcDB records.

As to “MGFLHKLWDETVAGPTPDNGLGKLRKHDSLSTVRSSPPSLSSDQVTRSIMVTKGNNNVRGLRKLKMDPDSPTCSSSNPGTPLTPGTPCYALGPFTAGKIPSSGEDDAASLTTYEWIVINALDR”, the protein production result was “failed”.
Consider “MGFYGGGSMASGRPESTGIDSLGIGKILAVYIKDNENLAIDEDKLQLTAELIRVFSASPGRDIVSQVNEDGGGSFSLSLDLQQFKKISDIENFFINLEDNPKGVIPCMNAAVHKVLFDQWETNEFENVMKINVRLHNYPESSISLKNLRAAYIGKLVTVHGTVVKVSTVKPLVTQMAFDCGKCKTGITREFTDGKFSPPLKCDSHGCKSKTFTPIRSSAQTIDFQKIRVQELQKPEDHEEGRVPRTVECELMEDLVDICIPGDVVTVTGIIGVINNYMDIGGGKSKTKNQGFYYLFIEAVSVKNTKRQSAFENSEDSSSSAQTADVGDLYSFSQRDLEFIVKFKEEYGSDTFRRILHSVCPSIYGHEIVKAGITLSLFGGVRKHSMDRNKVPVRGDIHVIIVGDPGLGKSQLLQAAAAISPRGIYVCGNATTRAGLTVAVVKDSMTNDYAFEAGAMVLADGGLCCIDEFDKMTTEHQALLEAMEQQCVSVAKAGLVASLSARTSVIAAANPVGGHYNRAKTVNENLKMSAALLSRFDLVFILLDKPDELLDKQVSEHIMSHHRMLGMQTCMQKGILYFQDCGWTLRKMTTFLRFLANCLGNIFPMHGILMSKDAGEIIQKFYLKLRDHNTSADSTPITARQLESLVRLAQARARVDLREEITVQDAMDVVEIMKESLYDKLIDEHGVVDFGRSGGMSQQKEAKRFLSALDKQSELQQKDCFSVSEMYSLADRIGLRVPDIDTFLENLNIAGYLLKKGPKTYQVLSSSYSRSQSSRSR”, for which the protein production entry is on record as “failed”.
In the case of “MGGDSVAIFTADMSVSGELRNDIELHLRRGIESDALRLVYLPEVDLRTGDIVGTEALVRWQHPTRGLLAPGCFIPVAESINLAGELDRWVLRRACNEFSEWQSAGLGHDALLRINVSAGQLVTGGFVDFVADTIGQHGLDASSVCLEITENVVVQDLHTARATLARLKEVGVHIAIDDFGTGYSAISLLQTLPIDTLKIDKTFVRQLGTNTSDLVIVRGIMTLAEGFQLDVVAEGVETEAAARILLDQRCYRAQGFLFSRPVPGEAMRHMLSARRLPPTCILEHHHHHH”, the protein production entry was “failed”.
Then “MGGITMTAVVSNRDKINFHEVADHYHSNKIIFGIKFLKNWALERLASCAPVPSWRAKLHKMRGVNIGENVYIGYDVIFDRIHPEMITVGDYAEIGDRCILSAHSRGSLTTRQAYPRSIAPIKIGRGVSVNPGCIITQGVEIGDNSIIGVGSVVSRNISPNSLALGYPAKVIKKLDGLEHHHHHH”, with “not failed”; and “MGGITMTAVVSNRDKINFHEVADHYHSNKIIFGIKFLKNWALERLASCAPVPSWRAKLHKMRGVNIGENVYIGYDVIFDRIHPEMITVGDYAEIGDRCILSAHSRGSLTTRQAYPRSIAPIKIGRGVSVNPGCIITQGVEIGDNSIIGVGSVVSRNISPNSLALGYPAKVIKKLDGVGELQTLEHHHHHH”, with “failed”.
Then “MGGKMRLLPIRKISRQSKRLALFLTFCAGYVDAYTFIVRGNTLVAGQTGNVVFLSVELIKNNVSDVRDKVLTLLAFMMGVFLLTIYKEKLRIVKKP”, with “failed”; and “MGGPAYDCLTNPLGAVRFSFVNALSSGYDPASSVGKDWGVVDLFRHYFSDESAISQVPILDSSSIKWVQPKTLVRFRGMIQDMLGNEFYAGAYKDDSTWRTNKYSDVSQFPEGSSTEIQVWERRLLYCVPVPGKNQWTECSSQELKNRFLDLTGQNREKRVRVDEEMTDSMDSSKVGEATSSASESQVPQTSGIPPATSADSLPCLVKIYDSPESDLKLNDVVEFLGVLTFDPIVMMDTDTLDENSDALSEAESVQMPSGKQPKSPQIFKEIRESLMKYLTGLLGNDHIAAQFLLLHLLSKVHGRVDNVAVGKLSLNLIHLNKESMSIFGTQLSGALKSLLPFTQSIPLTIEYLNTASFGPKKDYGINRLMPGVLQIADGTHLILDETELQPGTLNSVGVENANLLKNLLECQKVEYDFQYYKMEMATDVQMLIFSEGKSNIMPADLVLPLQPSQVNSLEVITPETAETWRCYLATCKSLSHSIGQELQQVVENDLVAARQTDRSLGSQDLSRLLTMARMMSVSYGETTLSLEHWQMVLELERLRKERLK”, with “failed”; and “MGGSLRVAVLGAPGVGKTAIIRQFLFGDYPERHRPTDGPRLYRPAVLLDGAVYDLSIRDGDVAGPGSSPGGPEEWPDAKDWSLQDTDAFVLVYDICSPDSFDYVKALRQRIAETR”, with “failed”.
For the sequence “MGHFDTPSLSRDAALLPDTGEPGFGVYVHWPFCAAKCPYCDFNSHVRHQPVDQERFAAAFLKEMAAVRAMSGPKTVTSIFLGGGTPSLMKPETVSAILDGIARHWHVPAGIEITMEANPSSVEAERFRGYRAAGVNRVSLGVQALNDRDLKFLGRLHDVADALKAIRLAREIFPRMSFDLIYARPDQTVDEWEKELKEAISYAVDHLSLYQLTIEEGTPFFGLHKSGKLIVPDGEQSALLYEATQEITAREGMPAYEVSNHARPGAESRHNLTYWRYGDYAGIGPGAHGRLTRGHEKLATATERKPEAWLEMVERDGHGILDEERLGFEEQSDELLLMGLRLREGVDLARWQQLSGRELDPKREEFLLEHKFIERIGNSRLRCTSAGMLILDSVVADLAC”, the protein production entry is “failed”.
Take “MGHHHHHHENLYFQSHMDSKRAALESGDGPDAKRLDTTDDQDKEASGGDGSQVMLAKHVAPYTGHGCTPPMESYLFEPTPAGSQLLPWKTSVDLDNDAELEKPTSDKKPDTAKLSRRELAKMRREHTLRALALERELTNKPGQTPASEVLLVRFPDPEITAPMLAG”: the protein production entry is given as “not failed”.
With “MGHHHHHHENLYFQSHMKFLLAFSLLIPSVVFASSSKFQQVEQDVKAIEVSLSARIGVSVLDTQNGEYWDYNGNQRFPLTSTFKTIACAKLLYDAEQGKVNPNSTVEIKKADLVTYSPVIEKQVGQAITLDDACFATMTTSDNTAANIILSAVGGPKGVTDFLRQIGDKETRLDRIEPDLNEGKLGDLRDTTTPKAIASTLNKFLFGSALSEMNQKKLESWMVNNQVTGNLLRSVLPAGWNIADRSGAGGFGARSITAVVWSEHQAPIIVSIYLAQTQASMEERNDAIVKIGHSIFDVYTSQSR”, the protein production entry is given as “not failed”.
As to “MGHHHHHHSHDPFAHLPKSTFVLDEFKRKYSNEDTLSVALPYFWEHFDKDGWSLWYSEYRFPEELTQTFMSCNLITGMFQRLDKLRKNAFASVILFGTNNSSSISGVWVFRGQELAFPLSPDWQVDYESYTWRKLDPGSEETQTLVREYFSWEGAFQHVGKAFNQGKIFK”, the protein production entry is given as “not failed”.
Take “MGHHHHHHSHIEETTMTTQTPAPIQAPSAILPLPGQSVERLCVDPRHRQGPVNLLSDPEQGVEVTGQYEREKAGFSWIEVTFKNPLVWVHASPEHVVVTRNRRSSAYKWKETLFSVMPGLKMTMDKTGLLLLSDPDKVTIGLLFWDGRGEGLRLLLRDTDRFSSHVGGTLGQFYQEVLWGSPAASD”: the protein production result is given as “failed”.
Regarding “MGHHHHHHSHLYPGSVYGRLIDLCQPTQKKYQIAVTKVLGKNMDAIIVDSEKTGRDCIQYIKEQRGEPETFLPLDYLEVKPTDEKLRELKGAKLVIDVIRYEPPHIKKALQYACGNALVCDNVEDARRIAFGGHQRHKTVALDGTLFQKSGVISG”, the protein production entry was “not failed”.
Take “MGHHHHHHSHMAFPSDATAEQGPILTKHGKNPVMELNEKRRGLKYELISETGGSHDKRFVMEVEVDGQKFQGAGSNKKVAKAYAALAALEKLFPDTPLALDANK”: the protein production result was “failed”.
Regarding “MGHHHHHHSHMAPWRKADKERHGVAIYNFQGSGAPQLSLQIGDVVRIQETCGDWYRGYLIKHKMLQGIFPKSFIHIK”, the protein production result is “failed”.
In the case of “MGHHHHHHSHMASLTVKAYLLGKEDAAREIRRFSFCCSPEPEAEAEAAAGPGPCERLLSRVAALFPALRPGGFQAHYRDEDGDLVAFSSDEELTMAMSYVKDDIFRIYIKEKKECRRDHRPPCAQEAPRNMVHP”, the protein production entry is “failed”.
As to “MGHHHHHHSHMDVTIQHPWFKRTLGPFYPSRLFDQFFGEGLFEYDLLPFLSSTISPYYRQSLFRTVLDSGISEVRSDRDKFVIFLDVKHFSPEDLTVKVQDDFVEIHGKHNERQDDHGYISREFHRRYRLPSNVDQSALSCSLSADGMLTFCGPKIQTGLDATHAER”, the protein production entry is on record as “failed”.
